Reference: EP0621339B1 (TAKARA SHUZO CO. LTD., dated 2001)

What was measured:
Experiment in all cases: cell-based or functional assay
[1] = biological target: HA molecule (haemagglutinin) of A/Adachi/2/57 (H2N2) (influenza A virus, H2N2 subtype, strain A/Adachi/2/57)
[2] = biological target: HA molecule (haemagglutinin) of A/Bangkok/10/83 (H1N1) (influenza A virus, H1N1 subtype, strain A/Bangkok/10/83)
[3] = biological target: HA molecule (haemagglutinin) of A/Fukuoka/C29/85 (H3N2) (influenza A virus, H3N2 subtype, strain A/Fukuoka/C29/85)
[4] = biological target: HA molecule (haemagglutinin) of A/Ibaraki/1/90 (H3N2) (influenza A virus, H3N2 subtype, strain A/Ibaraki/1/90)
[5] = biological target: HA molecule (haemagglutinin) of A/Izumi/5/65 (H2N2) (influenza A virus, H2N2 subtype, strain A/Izumi/5/65)
[6] = biological target: HA molecule (haemagglutinin) of A/Kaizuka/2/65 (H2N2) (influenza A virus, H2N2 subtype, strain A/Kaizuka/2/65)
[7] = biological target: HA molecule (haemagglutinin) of A/Kitakyushu/159/93 (H3N2) (influenza A virus, H3N2 subtype, strain A/Kitakyushu/159/93)
[8] = biological target: HA molecule (haemagglutinin) of A/Kumamoto/1/65 (H2N2) (influenza A virus, H2N2 subtype, strain A/Kumamoto/1/65)
[9] = biological target: HA molecule (haemagglutinin) of A/Osaka/930/88 (H1N1) (influenza A virus, H1N1 subtype, strain A/Osaka/930/88)
[10] = biological target: HA molecule (haemagglutinin) of A/Sichuan/2/87 (H3N2) (influenza A virus, H3N2 subtype, strain A/Sichuan/2/87)
[11] = biological target: HA molecule (haemagglutinin) of A/Suita/1/90 (H3N2) (influenza A virus, H3N2 subtype, strain A/Suita/1/90)
[12] = biological target: HA molecule (haemagglutinin) of A/Yamagata/120/86 (H1N1) (influenza A virus, H1N1 subtype, strain A/Yamagata/120/86)
[13] = biological target: HA molecule (haemagglutinin) of A1/FM/1/47 (H1N1) (influenza A virus, H1N1 subtype, strain A1/FM/1/47)
[14] = biological target: HA molecule (haemagglutinin) of A2/Aichi/2/68 (H3N2) (influenza A virus, H3N2 subtype, strain A2/Aichi/2/68)
[15] = biological target: HA molecule (haemagglutinin) of influenza B virus B/Nagasaki/1/87 (influenza B virus, strain B/Nagasaki/1/87)
[16] = biological target: HA molecule (haemagglutinin) of A/PR/8/34 (H1N1) (influenza A virus, H1N1 subtype, strain …, UniProt P03452 18-565)
Sequence of HA molecule (haemagglutinin) of A/PR/8/34 (H1N1) (P03452 18-565): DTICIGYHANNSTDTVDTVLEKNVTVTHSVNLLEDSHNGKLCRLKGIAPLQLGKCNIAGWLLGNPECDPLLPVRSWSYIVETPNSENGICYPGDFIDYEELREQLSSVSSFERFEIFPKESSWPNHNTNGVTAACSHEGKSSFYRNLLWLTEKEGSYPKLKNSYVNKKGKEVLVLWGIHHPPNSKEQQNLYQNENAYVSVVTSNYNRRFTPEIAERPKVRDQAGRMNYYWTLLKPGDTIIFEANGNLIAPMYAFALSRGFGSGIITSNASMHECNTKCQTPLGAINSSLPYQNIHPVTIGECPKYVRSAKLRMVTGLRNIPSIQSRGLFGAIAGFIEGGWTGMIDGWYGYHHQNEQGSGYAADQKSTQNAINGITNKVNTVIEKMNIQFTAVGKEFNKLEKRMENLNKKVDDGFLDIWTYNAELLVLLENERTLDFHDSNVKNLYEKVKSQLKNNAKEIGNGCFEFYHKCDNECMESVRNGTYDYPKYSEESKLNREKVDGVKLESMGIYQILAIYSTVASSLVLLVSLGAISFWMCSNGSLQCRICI

monoclonal antibody C179
< 32: HI (hemagglutination inhibition titer) (fold dilution of the ascites fluid) [1] | HI (hemagglutination inhibition titer) (fold dilution of the ascites fluid) [2] | HI (hemagglutination inhibition titer) (fold dilution of the ascites fluid) [3] | HI (hemagglutination inhibition titer) (fold dilution of the ascites fluid) [4] | HI (hemagglutination inhibition titer) (fold dilution of the ascites fluid) [5] | HI (hemagglutination inhibition titer) (fold dilution of the ascites fluid) [6] | HI (hemagglutination inhibition titer) (fold dilution of the ascites fluid) [7] | HI (hemagglutination inhibition titer) (fold dilution of the ascites fluid) [8] | HI (hemagglutination inhibition titer) (fold dilution of the ascites fluid) [9] | HI (hemagglutination inhibition titer) (fold dilution of the ascites fluid) [10] | HI (hemagglutination inhibition titer) (fold dilution of the ascites fluid) [11] | HI (hemagglutination inhibition titer) (fold dilution of the ascites fluid) [12] | HI (hemagglutination inhibition titer) (fold dilution of the ascites fluid) [13] | HI (hemagglutination inhibition titer) (fold dilution of the ascites fluid) [14] | HI (hemagglutination inhibition titer) (fold dilution of the ascites fluid) [15]

B1: monoclonal antibody C179 (antibody)
chain 1: EVKLVESGGGLVQPGGSLRLSCGTSGFTLTDDYMTWVRQPPGKALEWLGFIRDRANGYTTEYSASVKGRFTISRDNSQSIVYLQMNTLRVEDSATYYCARPKGYFPYAMDYWGQGT
chain 2: DIQMTQSPASQSASLGESVTITCLASQTIGTWLAWYQQKPGKSPQLLIYAATSLADGVPSRFSGSGSGTKFSFKISSLQAEDFVSYYCQQLYSTPW
< 32 fold dilution of the ascites fluid: HI (hemagglutination inhibition titer) [16]
